Laboratory results: patent US20260055162A1

Key:
Test in all cases: cell-based or functional assay
[1] = target: AA-TGFB-007 (TGFB-007), TGF-BR2 ECD-TGFBR2 TM-TGFBR2 truncated ICD (Homo sapiens (Human)) (UniProt P37173)
[2] = target: AA-TGFB-021 (TGFB-021), TGF-BR2 ECD-CD28 TM-CD3z ICD
[3] = target: AA-TGFB-052 (TGFB-052), TGF-BR2 ECD-CD28 TM-41BB ICD
[4] = target: AA-TGFB-058 (TGFB-058), TGF-BR2 ECD-DAP12 TM-DAP12 ICD
[5] = target: AA-TGFB-064 (TGFB-064), TGF-BR2 ECD-CD28 Long TM-TIRAP ICD
[6] = target: AA-TGFB-065 (TGFB-065), TGF-BR2 ECD-CD28 Long TM-BLNK ICD
[7] = target: AA-TGFB-066 (TGFB-066), TGF-BR2 ECD-CD28 Long TM-GRB2 ICD
Chain of AA-TGFB-066 (TGFB-066), TGF-BR2 ECD-CD28 Long TM-GRB2 ICD (chain, as listed by the source limits assumed, form in doubt): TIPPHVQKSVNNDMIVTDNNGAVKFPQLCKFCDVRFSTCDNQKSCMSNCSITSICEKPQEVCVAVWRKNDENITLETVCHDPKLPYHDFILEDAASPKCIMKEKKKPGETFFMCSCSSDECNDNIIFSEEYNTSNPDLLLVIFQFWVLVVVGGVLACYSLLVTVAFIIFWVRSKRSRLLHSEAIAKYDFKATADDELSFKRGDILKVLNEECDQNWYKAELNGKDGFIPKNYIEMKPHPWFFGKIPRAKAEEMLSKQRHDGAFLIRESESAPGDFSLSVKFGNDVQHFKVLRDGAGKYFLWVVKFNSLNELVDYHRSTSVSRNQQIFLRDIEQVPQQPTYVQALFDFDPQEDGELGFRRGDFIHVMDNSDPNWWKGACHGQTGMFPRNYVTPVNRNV

[8] = target: AA-TGFB-068 (TGFB-068), TGF-BR2 ECD-FCGR3A TM-FCGR3A ICD
Chain of AA-TGFB-068 (TGFB-068), TGF-BR2 ECD-FCGR3A TM-FCGR3A ICD (chain, as listed by the source limits assumed, form in doubt): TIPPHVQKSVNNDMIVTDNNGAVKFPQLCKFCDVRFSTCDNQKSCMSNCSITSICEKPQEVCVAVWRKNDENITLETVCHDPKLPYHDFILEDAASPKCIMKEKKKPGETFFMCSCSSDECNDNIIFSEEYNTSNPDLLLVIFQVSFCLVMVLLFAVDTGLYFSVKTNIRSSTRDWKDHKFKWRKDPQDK

[9] = target: AA-TGFB-073 (TGFB-073), TGF-BR2 ECD-SLAMF7 TM-SLAMF7 ICD
Chain of AA-TGFB-073 (TGFB-073), TGF-BR2 ECD-SLAMF7 TM-SLAMF7 ICD (chain, as listed by the source limits assumed, form in doubt): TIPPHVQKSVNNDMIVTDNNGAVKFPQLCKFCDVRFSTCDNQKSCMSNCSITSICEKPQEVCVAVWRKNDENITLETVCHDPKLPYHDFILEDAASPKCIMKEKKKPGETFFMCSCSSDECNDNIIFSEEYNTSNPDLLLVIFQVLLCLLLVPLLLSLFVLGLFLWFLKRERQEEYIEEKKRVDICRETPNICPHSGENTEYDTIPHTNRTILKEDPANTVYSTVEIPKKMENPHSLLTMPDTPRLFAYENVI

[10] = target: AA-TGFB-074 (TGFB-074), TGF-BR2 ECD-LFA2 TM-LFA2 ICD
Chain of AA-TGFB-074 (TGFB-074), TGF-BR2 ECD-LFA2 TM-LFA2 ICD (chain, as listed by the source limits assumed, form in doubt): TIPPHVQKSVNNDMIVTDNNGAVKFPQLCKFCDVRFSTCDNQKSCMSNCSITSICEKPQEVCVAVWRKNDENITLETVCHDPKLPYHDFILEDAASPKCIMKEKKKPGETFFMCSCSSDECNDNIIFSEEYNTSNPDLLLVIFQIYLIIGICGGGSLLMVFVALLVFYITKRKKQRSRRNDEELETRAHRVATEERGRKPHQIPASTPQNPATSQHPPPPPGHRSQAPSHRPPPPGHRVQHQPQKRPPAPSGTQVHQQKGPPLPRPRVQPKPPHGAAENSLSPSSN

[11] = target: AA-TGFB-080 (TGFB-080), TGF-BR2 ECD-DNAM1 TM-DNAM1 ICD
Chain of AA-TGFB-080 (TGFB-080), TGF-BR2 ECD-DNAM1 TM-DNAM1 ICD (chain, as listed by the source limits assumed, form in doubt): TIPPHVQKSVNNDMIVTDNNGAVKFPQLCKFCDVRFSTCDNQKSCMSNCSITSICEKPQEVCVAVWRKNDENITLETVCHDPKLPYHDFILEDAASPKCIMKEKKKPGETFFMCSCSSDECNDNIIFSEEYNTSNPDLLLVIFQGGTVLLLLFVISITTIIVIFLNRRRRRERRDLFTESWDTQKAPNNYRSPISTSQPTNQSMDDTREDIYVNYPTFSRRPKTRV

[12] = target: AA-TGFB-081 (TGFB-081), TGF-BR2 ECD-ICOS TM-ICOS ICD
Chain of AA-TGFB-081 (TGFB-081), TGF-BR2 ECD-ICOS TM-ICOS ICD (chain, as listed by the source limits assumed, form in doubt): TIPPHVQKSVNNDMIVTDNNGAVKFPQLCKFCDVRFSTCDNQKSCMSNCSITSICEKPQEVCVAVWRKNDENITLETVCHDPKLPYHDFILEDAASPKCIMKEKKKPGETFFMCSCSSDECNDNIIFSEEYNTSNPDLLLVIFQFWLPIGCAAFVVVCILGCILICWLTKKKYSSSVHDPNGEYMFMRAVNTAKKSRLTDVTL

[13] = target: AA-TGFB-084 (TGFB-084), TGF-BR2 ECD-NKp30 TM-NKp30 ICD
Chain of AA-TGFB-084 (TGFB-084), TGF-BR2 ECD-NKp30 TM-NKp30 ICD (chain, as listed by the source limits assumed, form in doubt): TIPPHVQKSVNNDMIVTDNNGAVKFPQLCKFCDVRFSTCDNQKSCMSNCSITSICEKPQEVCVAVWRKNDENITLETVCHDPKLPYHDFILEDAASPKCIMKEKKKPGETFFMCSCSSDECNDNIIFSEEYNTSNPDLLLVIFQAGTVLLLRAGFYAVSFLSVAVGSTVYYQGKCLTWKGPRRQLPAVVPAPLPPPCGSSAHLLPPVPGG

[14] = target: AA-TGFB-087 (TGFB-087), TGF-BR2 ECD-TLR4 TM-TLR4 ICD
Chain of AA-TGFB-087 (TGFB-087), TGF-BR2 ECD-TLR4 TM-TLR4 ICD (chain, as listed by the source limits assumed, form in doubt): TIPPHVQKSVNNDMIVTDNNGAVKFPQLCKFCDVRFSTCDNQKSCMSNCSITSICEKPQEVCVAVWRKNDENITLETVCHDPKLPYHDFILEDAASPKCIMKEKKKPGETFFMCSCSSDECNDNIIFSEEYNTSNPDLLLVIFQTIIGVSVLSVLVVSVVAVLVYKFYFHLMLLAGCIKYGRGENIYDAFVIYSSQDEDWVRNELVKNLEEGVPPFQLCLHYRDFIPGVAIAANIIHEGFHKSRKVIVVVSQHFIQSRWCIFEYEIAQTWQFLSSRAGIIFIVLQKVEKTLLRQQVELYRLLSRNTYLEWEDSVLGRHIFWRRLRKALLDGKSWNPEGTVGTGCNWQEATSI

[15] = target: AA-TGFB-094 (TGFB-094), TGF-BR2 ECD-CD28 Long TM-Lyn ICD
Chain of AA-TGFB-094 (TGFB-094), TGF-BR2 ECD-CD28 Long TM-Lyn ICD (chain, as listed by the source limits assumed, form in doubt): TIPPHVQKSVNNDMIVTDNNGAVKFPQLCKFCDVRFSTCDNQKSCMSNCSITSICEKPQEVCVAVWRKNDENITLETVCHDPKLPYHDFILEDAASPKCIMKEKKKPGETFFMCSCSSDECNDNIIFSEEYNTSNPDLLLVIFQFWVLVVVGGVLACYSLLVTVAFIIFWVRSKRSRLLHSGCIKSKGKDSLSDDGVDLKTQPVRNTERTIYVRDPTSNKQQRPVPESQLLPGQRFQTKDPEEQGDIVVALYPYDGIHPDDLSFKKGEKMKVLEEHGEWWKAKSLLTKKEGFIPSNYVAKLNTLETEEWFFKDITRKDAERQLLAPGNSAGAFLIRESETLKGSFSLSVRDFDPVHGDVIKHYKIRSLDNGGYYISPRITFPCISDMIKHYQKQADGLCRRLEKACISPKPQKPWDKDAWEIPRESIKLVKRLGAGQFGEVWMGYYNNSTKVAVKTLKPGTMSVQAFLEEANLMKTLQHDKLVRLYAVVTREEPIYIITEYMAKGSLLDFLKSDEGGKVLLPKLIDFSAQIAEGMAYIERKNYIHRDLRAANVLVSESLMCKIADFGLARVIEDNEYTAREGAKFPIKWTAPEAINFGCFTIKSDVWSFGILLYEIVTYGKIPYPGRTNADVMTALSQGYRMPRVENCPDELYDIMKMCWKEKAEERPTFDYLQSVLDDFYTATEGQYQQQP

[16] = target: AA-TGFB-096 (TGFB-096), TGF-BR2 ECD-CD28 Long TM-Fgr ICD

Chain of AA-TGFB-021 (TGFB-021), TGF-BR2 ECD-CD28 TM-CD3z ICD (chain, as listed by the source limits assumed, form in doubt): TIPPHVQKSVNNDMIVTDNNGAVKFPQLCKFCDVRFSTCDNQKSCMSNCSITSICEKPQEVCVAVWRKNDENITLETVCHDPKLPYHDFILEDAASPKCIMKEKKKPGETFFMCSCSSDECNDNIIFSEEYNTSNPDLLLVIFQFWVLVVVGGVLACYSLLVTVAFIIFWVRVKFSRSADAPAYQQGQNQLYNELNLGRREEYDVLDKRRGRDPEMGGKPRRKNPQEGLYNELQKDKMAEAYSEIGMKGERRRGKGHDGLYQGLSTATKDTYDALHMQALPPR
Chain of AA-TGFB-058 (TGFB-058), TGF-BR2 ECD-DAP12 TM-DAP12 ICD (chain, as listed by the source limits assumed, form in doubt): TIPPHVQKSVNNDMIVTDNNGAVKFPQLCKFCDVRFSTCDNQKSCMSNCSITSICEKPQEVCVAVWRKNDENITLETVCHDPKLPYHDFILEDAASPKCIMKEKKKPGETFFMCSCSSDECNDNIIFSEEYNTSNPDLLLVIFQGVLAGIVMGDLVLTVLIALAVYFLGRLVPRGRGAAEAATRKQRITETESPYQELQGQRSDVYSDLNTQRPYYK
Chain of AA-TGFB-052 (TGFB-052), TGF-BR2 ECD-CD28 TM-41BB ICD (chain, as listed by the source limits assumed, form in doubt): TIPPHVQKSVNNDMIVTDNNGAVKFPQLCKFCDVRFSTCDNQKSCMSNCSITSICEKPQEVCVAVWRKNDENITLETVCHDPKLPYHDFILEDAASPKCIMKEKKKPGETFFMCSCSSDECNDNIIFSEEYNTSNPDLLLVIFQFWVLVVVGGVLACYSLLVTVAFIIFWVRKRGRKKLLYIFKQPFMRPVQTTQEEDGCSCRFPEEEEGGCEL
Chain of AA-TGFB-064 (TGFB-064), TGF-BR2 ECD-CD28 Long TM-TIRAP ICD (chain, as listed by the source limits assumed, form in doubt): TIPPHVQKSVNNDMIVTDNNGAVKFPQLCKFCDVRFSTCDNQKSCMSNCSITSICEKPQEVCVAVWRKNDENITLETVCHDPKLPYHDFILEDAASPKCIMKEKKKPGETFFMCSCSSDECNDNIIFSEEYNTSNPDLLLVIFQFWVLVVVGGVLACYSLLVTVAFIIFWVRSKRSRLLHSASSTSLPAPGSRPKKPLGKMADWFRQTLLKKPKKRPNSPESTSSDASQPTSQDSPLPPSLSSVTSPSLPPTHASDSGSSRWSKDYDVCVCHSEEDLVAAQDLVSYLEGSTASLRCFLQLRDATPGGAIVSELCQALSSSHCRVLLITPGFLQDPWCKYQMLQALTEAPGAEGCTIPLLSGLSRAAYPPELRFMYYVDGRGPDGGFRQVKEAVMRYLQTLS
Chain of recombinant TGF-B1 cytokine (P01137 279-390 limits assumed): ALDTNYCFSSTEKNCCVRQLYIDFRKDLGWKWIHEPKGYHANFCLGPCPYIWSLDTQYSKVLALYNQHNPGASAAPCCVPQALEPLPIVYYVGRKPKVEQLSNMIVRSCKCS
Chain of AA-TGFB-007 (TGFB-007), TGF-BR2 ECD-TGFBR2 TM-TGFBR2 truncated ICD (Homo sapiens (Human)) (P37173 23-199, form in doubt): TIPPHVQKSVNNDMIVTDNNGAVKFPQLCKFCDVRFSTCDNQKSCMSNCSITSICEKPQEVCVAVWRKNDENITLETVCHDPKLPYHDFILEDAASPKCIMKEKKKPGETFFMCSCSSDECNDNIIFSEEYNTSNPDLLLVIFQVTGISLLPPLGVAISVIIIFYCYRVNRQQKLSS

5-Day Fold Expansion of NK cells, 10 ng/mL TGF-B1 [1]: 2 fold | Average IFNg Secretion, 10 ng/mL TGF-B1 [1]: > 9000 pg/mL | Average IP-10 Secretion, 10 ng/mL TGF-B1 [1]: 2150 | CD69, fold-change of MFI over no stimulation, High (0.05 ug/mL) [1]: 1.2 fold | CD69, fold-change of MFI over no stimulation, Low (0.002 ug/mL) [1]: 1.4 fold | CD69, fold-change of MFI over no stimulation, Med. (0.01 ug/mL) [1]: 1.2 fold | GFP, fold-change of MFI over no stimulation, High (0.05 ug/mL) [1]: 0.8 fold | GFP, fold-change of MFI over no stimulation, Low (0.002 ug/mL) [1]: 0.7 fold | GFP, fold-change of MFI over no stimulation, Med. (0.01 ug/mL) [1]: 0.7 fold | 5-Day Fold Expansion of NK cells, 10 ng/mL TGF-B1 [2]: 0.45 fold | CD69, fold-change of MFI over no stimulation, High (0.05 ug/mL) [2]: 93 fold | CD69, fold-change of MFI over no stimulation, Low (0.002 ug/mL) [2]: 21.5 fold | CD69, fold-change of MFI over no stimulation, Med. (0.01 ug/mL) [2]: 62.2 fold | GFP, fold-change of MFI over no stimulation, High (0.05 ug/mL) [2]: 10.1 fold | GFP, fold-change of MFI over no stimulation, Low (0.002 ug/mL) [2]: 2.8 fold | GFP, fold-change of MFI over no stimulation, Med. (0.01 ug/mL) [2]: 9.3 fold | 5-Day Fold Expansion of NK cells, 10 ng/mL TGF-B1 [3]: 1.57 fold | Average IFNg Secretion, 10 ng/mL TGF-B1 [3]: 8770 pg/mL | Average IP-10 Secretion, 10 ng/mL TGF-B1 [3]: 976 | 5-Day Fold Expansion of NK cells, 10 ng/mL TGF-B1 [4]: 1.76 fold | Average IFNg Secretion, 10 ng/mL TGF-B1 [4]: 2360 pg/mL | Average IP-10 Secretion, 10 ng/mL TGF-B1 [4]: 837 | 5-Day Fold Expansion of NK cells, 10 ng/mL TGF-B1 [5]: 1.04 fold | Average IFNg Secretion, 10 ng/mL TGF-B1 [5]: 4790 pg/mL | Average IP-10 Secretion, 10 ng/mL TGF-B1 [5]: 1540 | 5-Day Fold Expansion of NK cells, 10 ng/mL TGF-B1 [6]: 0.71 fold | Average IFNg Secretion, 10 ng/mL TGF-B1 [6]: 3130 pg/mL | Average IP-10 Secretion, 10 ng/mL TGF-B1 [6]: 1030 | 5-Day Fold Expansion of NK cells, 10 ng/mL TGF-B1 [7]: 1.44 fold | Average IFNg Secretion, 10 ng/mL TGF-B1 [7]: 3270 pg/mL | Average IP-10 Secretion, 10 ng/mL TGF-B1 [7]: 1240 | 5-Day Fold Expansion of NK cells, 10 ng/mL TGF-B1 [8]: 1.55 fold | Average IFNg Secretion, 10 ng/mL TGF-B1 [8]: 2820 pg/mL | Average IP-10 Secretion, 10 ng/mL TGF-B1 [8]: 686 | 5-Day Fold Expansion of NK cells, 10 ng/mL TGF-B1 [9]: 3.08 fold | Average IFNg Secretion, 10 ng/mL TGF-B1 [9]: 6910 pg/mL | Average IP-10 Secretion, 10 ng/mL TGF-B1 [9]: 1420 | 5-Day Fold Expansion of NK cells, 10 ng/mL TGF-B1 [10]: 2.4 fold | Average IFNg Secretion, 10 ng/mL TGF-B1 [10]: 5730 pg/mL | Average IP-10 Secretion, 10 ng/mL TGF-B1 [10]: 1170 | 5-Day Fold Expansion of NK cells, 10 ng/mL TGF-B1 [11]: 2.11 fold | Average IFNg Secretion, 10 ng/mL TGF-B1 [11]: 4380 pg/mL | Average IP-10 Secretion, 10 ng/mL TGF-B1 [11]: 1230 | 5-Day Fold Expansion of NK cells, 10 ng/mL TGF-B1 [12]: 2.31 fold | Average IFNg Secretion, 10 ng/mL TGF-B1 [12]: > 9000 pg/mL | Average IP-10 Secretion, 10 ng/mL TGF-B1 [12]: 2180 | 5-Day Fold Expansion of NK cells, 10 ng/mL TGF-B1 [13]: 2.19 fold | Average IFNg Secretion, 10 ng/mL TGF-B1 [13]: 4870 pg/mL | Average IP-10 Secretion, 10 ng/mL TGF-B1 [13]: 1340 | 5-Day Fold Expansion of NK cells, 10 ng/mL TGF-B1 [14]: 2.51 fold | Average IFNg Secretion, 10 ng/mL TGF-B1 [14]: 6060 pg/mL | Average IP-10 Secretion, 10 ng/mL TGF-B1 [14]: 1260 | 5-Day Fold Expansion of NK cells, 10 ng/mL TGF-B1 [15]: 1.2 fold | Average IFNg Secretion, 10 ng/mL TGF-B1 [15]: > 9000 pg/mL | Average IP-10 Secretion, 10 ng/mL TGF-B1 [15]: 3210 | 5-Day Fold Expansion of NK cells, 10 ng/mL TGF-B1 [16]: 1 fold | Average IFNg Secretion, 10 ng/mL TGF-B1 [16]: > 9000 pg/mL | Average IP-10 Secretion, 10 ng/mL TGF-B1 [16]: 2330
Substance: recombinant TGF-B1 cytokine (from UniProt P01137 279-390) (ligand)
Average % Killing (SKOV-3), 10 ng/mL TGF-B1 [1]: 24.1% | Average % Killing (SKOV-3), 10 ng/mL TGF-B1 [2]: 2.26% | Average % Killing (SKOV-3), 10 ng/mL TGF-B1 [3]: 12.8% | Average % Killing (SKOV-3), 10 ng/mL TGF-B1 [4]: 8.35% | Average % Killing (SKOV-3), 10 ng/mL TGF-B1 [5]: 9.89% | Average % Killing (SKOV-3), 10 ng/mL TGF-B1 [6]: 9.68% | Average % Killing (SKOV-3), 10 ng/mL TGF-B1 [7]: 8.89% | Average % Killing (SKOV-3), 10 ng/mL TGF-B1 [8]: 8.25% | Average % Killing (SKOV-3), 10 ng/mL TGF-B1 [9]: 13.1% | Average % Killing (SKOV-3), 10 ng/mL TGF-B1 [10]: 11.2% | Average % Killing (SKOV-3), 10 ng/mL TGF-B1 [11]: 10.8% | Average % Killing (SKOV-3), 10 ng/mL TGF-B1 [12]: 18.8% | Average % Killing (SKOV-3), 10 ng/mL TGF-B1 [13]: 13.7% | Average % Killing (SKOV-3), 10 ng/mL TGF-B1 [14]: 11.9% | Average % Killing (SKOV-3), 10 ng/mL TGF-B1 [15]: 16.5% | Average % Killing (SKOV-3), 10 ng/mL TGF-B1 [16]: 16%
